Values of other authors in patent US8747397B2, “Cryotreatment pellet” (CPSI Holdings LLC, priority 2009, dated 2014).

Tested on: prostate cancer cell

B1: TNF-Related Apoptosis-Inducing Ligand (protein, UniProt P50591 1-281, looked up)
Tumor necrosis factor ligand …: MAMMEVQGGPSLGQTCVLIVIFTVLLQSLCVAVTYVYFTNELKQMQDKYSKSGIACFLKEDDSYWDPNDEESMNSPCWQVKWQLRQLVRKMILRTSEETISTVQEKQQNISPLVRERGPQRVAAHITGTRGRSNTLSSPNSKNEKALGRKINSWESSRSGHSFLSNLHLRNGELVIHEKGFYYIYSQTYFRFQEEIKENTKNDKQMVQYIYKYTSYPDPILLMKSARNSCWSKDAEYGLYSIYQGGIFELKENDRIFVSVTNEHLIDMDHEASFFGAFLVG
notes: cytotoxic agent, apoptosis-inducing ligand applied in combination with freezing
Question: Which results are given for B1?
Answer: cell death (sub-lethal dose applied in vitro in combination with freezing): complete prostate cancer cell death occurs; critical death temperature (sub-lethal dose in combination with freezing, reduced from −40° C. (freezing alone)): −10 °C
